Experimental data published in US20030113787A1 (Takeda / Millennium, published 2003).

Assays:
[1] = target: T1, Myc-tagged CARD-9 (human, UniProt Q9H257 1-536); assay: co-localization by immunofluorescence in co-transfected Rat-1 cells
T1 construct: Expressed in 293T or Rat-1 cells; Species not restated; also called pCI-Card-9-myc
T1 sequence: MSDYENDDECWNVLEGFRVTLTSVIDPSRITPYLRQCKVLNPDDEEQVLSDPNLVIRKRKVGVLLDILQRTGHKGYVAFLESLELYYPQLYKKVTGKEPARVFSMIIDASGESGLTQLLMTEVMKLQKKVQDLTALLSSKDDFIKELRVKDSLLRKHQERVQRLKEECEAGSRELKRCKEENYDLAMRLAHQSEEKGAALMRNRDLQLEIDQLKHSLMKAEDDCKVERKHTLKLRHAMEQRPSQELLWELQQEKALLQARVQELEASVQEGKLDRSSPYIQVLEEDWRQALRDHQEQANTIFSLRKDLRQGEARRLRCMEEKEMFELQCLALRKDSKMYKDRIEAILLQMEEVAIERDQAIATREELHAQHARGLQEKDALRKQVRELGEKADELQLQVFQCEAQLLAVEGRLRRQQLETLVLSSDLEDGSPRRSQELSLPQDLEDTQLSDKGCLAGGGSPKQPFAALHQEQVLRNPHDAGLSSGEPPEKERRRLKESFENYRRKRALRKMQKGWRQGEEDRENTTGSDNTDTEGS
From the text: To determine the cellular localization of CARD-9, and to confirm that CARD-9 associated intracellularly with Bcl-10 when the two proteins were co-expressed, Rat-1 cells were transfected with a Myc-tagged vector encoding full-length CARD-9, and with an HA-tagged vector encoding full-length Bcl-10. The expressed proteins were detected using a mixture of a monoclonal anti-Myc antibody and a polyclonal rabbit anti-HA antibody. Briefly, Rat-1 cells were transfected in glass chamber slides (BioCoat, Becton-Dickinson Labware) with pCI-Bcl-10-HA or pCI-Card-9-myc, alone or together, using FuGENE-6 (Roche Molecular Biochemicals) for 20 hours. Cells were fixed in 4% paraformaldehyde, permeabilized and blocked in buffer containing 0.4% Trition X-100, and sequentially incubated with primary and secondary antibodies. Antibodies were rabbit anti-HA polyclonal Y-11 (Santa Cruz Biotechnology), mouse anti-myc monoclonal 9E10 (Oncogene Research Products), Alexa-488 Goat anti-mouse IgG (Molecular Probes) and Texas-Red Goat anti-rabbit IgG (Jackson Immunoresearch Laboratories). No cross-reactivity was observed between any of the antibodies. Nuclei were stained with Hoechst 33258. […]

[2] = target: T2, Myc-CARD-11/CC (human, UniProt Q9BXL7 129-449); assay: co-localization by immunofluorescence in co-transfected cells
T2 construct: NOT the whole entry: only the coiled-coil region stood in the assay
T2 sequence: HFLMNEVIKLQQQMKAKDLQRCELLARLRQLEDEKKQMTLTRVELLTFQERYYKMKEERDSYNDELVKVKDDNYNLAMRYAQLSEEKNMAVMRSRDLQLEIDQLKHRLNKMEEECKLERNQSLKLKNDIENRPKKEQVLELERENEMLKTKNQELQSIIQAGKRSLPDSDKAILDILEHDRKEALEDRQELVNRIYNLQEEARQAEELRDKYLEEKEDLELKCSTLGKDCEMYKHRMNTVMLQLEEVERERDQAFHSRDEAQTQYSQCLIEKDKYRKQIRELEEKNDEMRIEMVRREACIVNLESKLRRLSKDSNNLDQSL

[3] = target: T3, Myc-tagged CARD-11 (full-length) (human, UniProt Q9BXL7 8-1154); assay: as above
T3 construct: Used in the co-localization and Bcl-10 phosphorylation experiments; also called full-length CARD-11
T3 sequence: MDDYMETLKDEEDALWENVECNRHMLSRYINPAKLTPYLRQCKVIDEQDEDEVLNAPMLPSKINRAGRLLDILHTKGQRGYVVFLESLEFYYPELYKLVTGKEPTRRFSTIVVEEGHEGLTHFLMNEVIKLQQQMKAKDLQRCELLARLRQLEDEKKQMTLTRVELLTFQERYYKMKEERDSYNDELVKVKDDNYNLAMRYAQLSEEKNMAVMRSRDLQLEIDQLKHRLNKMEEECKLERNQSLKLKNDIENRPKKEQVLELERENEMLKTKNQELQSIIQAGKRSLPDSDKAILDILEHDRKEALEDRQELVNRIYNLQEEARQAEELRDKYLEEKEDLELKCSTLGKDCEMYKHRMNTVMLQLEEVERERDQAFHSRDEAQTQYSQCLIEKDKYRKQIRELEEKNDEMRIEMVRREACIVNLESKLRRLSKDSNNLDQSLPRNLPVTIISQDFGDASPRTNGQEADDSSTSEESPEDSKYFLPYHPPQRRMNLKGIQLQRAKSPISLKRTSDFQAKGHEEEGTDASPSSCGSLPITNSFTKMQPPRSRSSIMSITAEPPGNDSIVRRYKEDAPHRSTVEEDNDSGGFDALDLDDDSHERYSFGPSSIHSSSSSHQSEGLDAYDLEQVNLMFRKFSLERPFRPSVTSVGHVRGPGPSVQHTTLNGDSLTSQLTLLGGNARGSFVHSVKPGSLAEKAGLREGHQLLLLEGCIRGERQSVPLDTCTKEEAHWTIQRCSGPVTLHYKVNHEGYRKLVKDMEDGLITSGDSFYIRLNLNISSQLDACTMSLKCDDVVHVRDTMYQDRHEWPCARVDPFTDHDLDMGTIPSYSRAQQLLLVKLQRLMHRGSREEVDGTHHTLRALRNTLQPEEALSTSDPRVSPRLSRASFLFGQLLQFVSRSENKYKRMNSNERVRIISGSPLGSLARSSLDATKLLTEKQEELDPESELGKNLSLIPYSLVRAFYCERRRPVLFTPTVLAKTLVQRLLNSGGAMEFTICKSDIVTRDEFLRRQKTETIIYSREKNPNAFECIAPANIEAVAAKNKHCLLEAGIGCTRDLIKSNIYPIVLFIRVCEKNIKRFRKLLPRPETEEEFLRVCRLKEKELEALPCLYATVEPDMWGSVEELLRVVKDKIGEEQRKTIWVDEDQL

[4] = target: T4, CARD-11/DCARD (human, UniProt Q9BXL7 134-1154); assay: as above
T4 construct: also called CARD-11 truncation mutant lacking the N-terminal CARD
T4 sequence: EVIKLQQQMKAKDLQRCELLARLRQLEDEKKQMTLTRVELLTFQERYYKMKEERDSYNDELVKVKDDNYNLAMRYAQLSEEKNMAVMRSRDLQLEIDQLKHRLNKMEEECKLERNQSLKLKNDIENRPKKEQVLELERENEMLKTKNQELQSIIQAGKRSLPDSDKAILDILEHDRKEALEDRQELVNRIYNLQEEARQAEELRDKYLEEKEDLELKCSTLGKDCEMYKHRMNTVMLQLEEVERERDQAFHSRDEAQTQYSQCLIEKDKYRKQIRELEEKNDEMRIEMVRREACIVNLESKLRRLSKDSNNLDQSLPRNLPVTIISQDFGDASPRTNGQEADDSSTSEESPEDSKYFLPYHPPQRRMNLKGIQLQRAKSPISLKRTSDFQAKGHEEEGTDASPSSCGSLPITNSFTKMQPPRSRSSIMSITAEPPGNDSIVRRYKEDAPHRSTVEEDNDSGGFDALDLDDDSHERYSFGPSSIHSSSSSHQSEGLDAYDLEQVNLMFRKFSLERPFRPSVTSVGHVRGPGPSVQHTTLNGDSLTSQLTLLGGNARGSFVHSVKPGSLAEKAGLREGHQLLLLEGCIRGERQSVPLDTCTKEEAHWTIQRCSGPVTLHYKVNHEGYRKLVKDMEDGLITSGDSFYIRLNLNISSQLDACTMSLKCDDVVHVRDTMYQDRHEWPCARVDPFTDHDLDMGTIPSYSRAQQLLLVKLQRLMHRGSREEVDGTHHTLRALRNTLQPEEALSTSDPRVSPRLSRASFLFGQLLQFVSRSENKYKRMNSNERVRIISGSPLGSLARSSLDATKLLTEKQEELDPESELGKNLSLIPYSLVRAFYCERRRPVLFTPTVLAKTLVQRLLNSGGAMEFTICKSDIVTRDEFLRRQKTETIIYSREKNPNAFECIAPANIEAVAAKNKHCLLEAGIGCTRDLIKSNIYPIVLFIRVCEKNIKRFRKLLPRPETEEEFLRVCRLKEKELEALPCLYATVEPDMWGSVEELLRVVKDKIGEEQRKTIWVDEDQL

[5] = target: T2, Myc-CARD-11/CC; assay: co-immunoprecipitation from transfected 293T cells (anti-Flag IP, anti-Myc blot)
Method: The interaction between CARD-11 and Bcl-10 was next examined in cells by overexpressing CARD-11 is cells and performing co-immunoprecipitation assays. These assays were performed as follows. Plasmids expressing CARD-11 with C-terminal Myc epitopes were constructed using pCMV-Tag 5A (Stratagene Corp., La Jolla, Calif.). Constructs encoding epitope-tagged Bcl-10 were described previously (Srinivasula et al., […] J. Biol. Chem. 274:17946). 293T cells transfected with the plasmids were lysed in 50 mM Tris, pH 8.0, 120 mM NaCl, 1 mM EDTA, 0.5% Nonidet P-40 buffer and incubated with anti-Flag-M2 monoclonal antibody (Sigma Co.). The immune complexes were precipitated with protein G-Sepharose (Amersham Pharmacia Bio), washed extensively, and then subjected to SDS-polyacrylamide gel electrophoresis and immunoblotted with polyclonal anti-Myc antibodies (Santa Cruz Biotechnology, Inc.).

[6] = target: T5, Bcl-10-CARD/AD (mouse, UniProt Q04207 364-549; O95999 1-104); assay: cell-based or functional assay
T5 sequence (looked up): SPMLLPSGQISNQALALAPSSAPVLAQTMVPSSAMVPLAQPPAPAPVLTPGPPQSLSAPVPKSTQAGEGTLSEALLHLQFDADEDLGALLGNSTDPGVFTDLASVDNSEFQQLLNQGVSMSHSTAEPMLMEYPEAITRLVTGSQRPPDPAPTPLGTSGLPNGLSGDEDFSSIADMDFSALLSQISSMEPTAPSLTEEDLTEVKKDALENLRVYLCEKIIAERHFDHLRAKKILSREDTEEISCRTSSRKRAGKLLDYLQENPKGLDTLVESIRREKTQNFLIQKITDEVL

B1: HA-tagged Bcl-10 (other, UniProt O95999 1-233, looked up, not shown: small tags and cut ends)
chain: MEPTAPSLTEEDLTEVKKDALENLRVYLCEKIIAERHFDHLRAKKILSREDTEEISCRTSSRKRAGKLLDYLQENPKGLDTLVESIRREKTQNFLIQKITDEVLKLRNIKLEHLKGLKCSSCEPFPDGATNNLSRSNSDESNFSEKLRASTVMYHPEGESSTTPFFSTNSSLNLPVLEVGRTENTIFSSTTLPRPGDPGAPPLPPDLQLEEEGTCANSSEMFLPLRSRTVSRQ
notes: Expressed in Rat-1 or other transfected cells; also called pCI-Bcl-10-HA; HA-Bcl-10
binding result [1]: binds | binding result [2]: no binding | binding result [3]: binds | binding result [4]: no binding

B2: Flag-tagged Bcl-10 (other, UniProt O95999 1-233, looked up, not shown: small tags and cut ends)
chain: B1 chain
notes: Expressed in 293T cells; also called Flag-Bcl-10
binding result [5]: no binding

B3: CARD10-CARD/BD (other, yeast)
chain: MKLLSSIEQACDICRLKKLKCSKEKPKCAKCLKNNWECRYSPKTKRSPLTRAHLTEVESRLERLEQLFLLIFPREDLDMILKMDSLQDIKALLTGLFVQDNVNKDAVTDRLASVETDMPLTLRQHRISATSSSEESSNKGQRQLTVSMPGRAEAGEAEEEAGAGSGSEAEEDALWERIEGVRHRLARALNPAKLTPYLRQCRVIDEQDEEEVLSTYRFPCRVNRTGRLMDILRCRGKRGYEAFLEALEFYYPEHFTLLTGQEPAQRCSMILDEEGPEGLTQFLMT
relative luciferase activity (mammalian two-hybrid reporter) [6]: 340 fold
